Results published in publication PMC3521718, “Histone Deacetylase HDA6 Is Functionally Associated with AS1 in Repression of KNOX Genes in Arabidopsis” (PLoS Genetics, 2012).

Target: T1, glutathione S-transferase (GST)-HDA6 recombinant protein (Arabidopsis thaliana, UniProt Q9FML2 1-471)
T1 construct: Histone deacetylase HDA6 of Arabidopsis; Printed both as GST-HDA6 and as HDA6-GST; also called HDA6-GST; source: recombinant protein
T1 sequence (looked up): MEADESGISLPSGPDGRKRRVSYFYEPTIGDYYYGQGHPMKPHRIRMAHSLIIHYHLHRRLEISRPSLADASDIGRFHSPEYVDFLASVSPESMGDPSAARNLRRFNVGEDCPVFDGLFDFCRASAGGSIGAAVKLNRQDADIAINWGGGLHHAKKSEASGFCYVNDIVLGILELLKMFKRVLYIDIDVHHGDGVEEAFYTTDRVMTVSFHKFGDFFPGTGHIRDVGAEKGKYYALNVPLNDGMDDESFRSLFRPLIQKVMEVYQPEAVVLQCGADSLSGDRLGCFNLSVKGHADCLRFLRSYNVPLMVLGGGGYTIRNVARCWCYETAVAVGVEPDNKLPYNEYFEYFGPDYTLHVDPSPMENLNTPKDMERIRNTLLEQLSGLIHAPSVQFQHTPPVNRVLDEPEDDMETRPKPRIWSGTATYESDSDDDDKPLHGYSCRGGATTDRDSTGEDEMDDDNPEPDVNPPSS
Assay: pull-down; 2 µg MBP-AS1 on MBP resin, then 2 µg GST-HDA6 for 2 h at 4°C; 20 mM Tris-HCl pH 7.5, 200 mM NaCl, 1 mM EDTA; western blot with anti-GST
Details: both partners purified

binding result: binds
B1: MBP-AS1 recombinant protein (natural protein, Arabidopsis thaliana, UniProt O80931 1-367, looked up)
chain: MKERQRWSGEEDALLRAYVRQFGPREWHLVSERMNKPLNRDAKSCLERWKNYLKPGIKKGSLTEEEQRLVIRLQEKHGNKWKKIAAEVPGRTAKRLGKWWEVFKEKQQREEKESNKRVEPIDESKYDRILESFAEKLVKERSNVVPAAAAAATVVMANSNGGFLHSEQQVQPPNPVIPPWLATSNNGNNVVARPPSVTLTLSPSTVAAAAPQPPIPWLQQQQPERAENGPGGLVLGSMMPSCSGSSESVFLSELVECCRELEEGHRAWADHKKEAAWRLRRLELQLESEKTCRQREKMEEIEAKMKALREEQKNAMEKIEGEYREQLVGLRRDAEAKDQKLADQWTSRHIRLTKFLEQQMGCRLDRP
notes: The methods spell MBP out as 'Myelin basic protein'; source: purified recombinant protein
